{"source": "the nanobody polyreactivity screen of Harvey et al. (2022)"}
{"assay": "yeast display, Sf9 membrane polyspecificity reagent, FACS + sequencing; frameworks hold sequencing errors", "how_it_was_run": "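A synthetic nanobody library was expressed on Saccharomyces cerevisiae BJ5465 by galactose induction for 36–48 hours. The library was stained for 1 hour at 4 °C with 10% biotinylated, detergent-solubilized Sf9 membrane reagent and enriched with streptavidin microbeads before FACS. Low and high (top ~1%) gates were set on anti-HA fluorescence for expression and streptavidin fluorescence for reagent binding, and each polyreactivity label reflects the gate of origin.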"}
{"sequence": "QVQLVESGGGLVQAGGSLRLSCAASGIIIWYNTMGWYRQAPGKEREFVARISRRVGSTYYADSVKGRFTISRDNAKNTVYLQMNSLKPEDTAVYYCAASPYQVRYQWGNRLDYWGQGTQVTVSS", "polyreactivity (PSR sort gate)": "high polyreactivity"}
{"sequence": "QVQLVESGGGLVQAGGSLRLSCAASGSIFGDYAMGWYRQAPVKERELVATITWIGGSTYYADSVKGRFTISRDNAKNTVYLQMNSLTPEDTAVYYCAATKYVDVKYYYWGQGTQVTVSS", "polyreactivity (PSR sort gate)": "low polyreactivity"}
{"sequence": "QVQLVESGGGLVQAGGSLRISCAASGRTFDSYAMGWYIQAPGKEREFVAAISYSGTSTYYADSVKGRFTISRDYAKNTVYLQMNSLIPEDTAVYYCAKEFIFRLWGQGTQVTVSS", "polyreactivity (PSR sort gate)": "low polyreactivity"}
{"sequence": "QVQLVESGGALVQAGGSLRLSCAASGRIFGVNAMGWYRQAPGKERELVAAITSRGGSTYYADSVKGRFTISRDNAKNTVYLQMHSLTPEDTEVYYCRGWRYFTDKTYDYWGQGTQVTVSS", "polyreactivity (PSR sort gate)": "high polyreactivity"}
{"sequence": "QVQLVESGGGLVQAGGSHRLSCAAYGRTFGVYAMGWYRQAPGKERELVAAISSRGGSTYYADSVKGRFTISRDNAKNSVYLQMNSLKPEDTAFYYCAAPWYQGLDYWGQGTQVTVSS", "polyreactivity (PSR sort gate)": "high polyreactivity"}
{"sequence": "QVQLVESGGGLVQAGGSLRLTSAGSGSTFSYYTMGWYRQAPGKERELVATIRSTGSTTYADSVKGRFTISRDNVKNTVYLQMNSLKPEDTAVYFCAARSRWGGYIHTGYDYWGQGTQVTVSS", "polyreactivity (PSR sort gate)": "low polyreactivity"}
{"sequence": "QVQLEESGGGLVQAGGSLRLSCAASGCTLTDYAMGWYIQAPGKERELVAAISSVGSTNYADSVKGRFTISRDNAKNTVYLQMNSLKPEDTAVYYCAVDYGRAVQGDSITYDFNYWGQGTQVNVSS", "polyreactivity (PSR sort gate)": "low polyreactivity"}
{"sequence": "QVQLVESGGGLVQAGGSLRLSCAASGFIFQDYALGWYRKAPGKERELVAAITQSSGSTYYADSVKGRFTISRDNAKNTVYLQMNSLKPEDTAVYYCNTAYDFSRQASYDYWGQGTQVTVSS", "polyreactivity (PSR sort gate)": "low polyreactivity"}
{"sequence": "QVQLVESGGGLVQAGGSLRLSCAASGSIFFYYAMGWYRQAPGKERELVAAINSDGSTNYADSVKGRFTISRDNAKNTVYLQMNSLKPEDTAVYYCAAYDEYYGYDYWGQGTQVTVSS", "polyreactivity (PSR sort gate)": "low polyreactivity"}
{"sequence": "QVQLVESGGGLVQAGGSLRLSCAASGFTFYGYAMGWYRQAPGKEREFVAAISSRGGRTYYADSVKGRFTISRDNAKNTVYLQMNSLKPEDTAVYYCARRRATGRFSLDYWGQGTQVTVSS", "polyreactivity (PSR sort gate)": "high polyreactivity"}
{"sequence": "QVQLVESGGGLVQAGGSLRLSCAASGSTFGYNAMGWYRQAPGKERELVAASSRSGGRTYYADSVKGRFTISRDNAKNTVYLQMNSLKPEDTAVYYCATYYTNKVPARYYWGQGTQVTVSS", "polyreactivity (PSR sort gate)": "high polyreactivity"}
{"sequence": "QVQLVESGGGLVQAGGSIRLICAASGPIFSSYAIGCYRQAPGKERELVAAITSSGTSTYYADSVKGRFTISRDYAKNTVYVQMTSLKPEDTAVYYCAARRARTGDYWGQGTQVTLSS", "polyreactivity (PSR sort gate)": "high polyreactivity"}
{"sequence": "QVQLVESGGGLVQAGGSLRLSCAASGIIFYYYAMGWYRQAPGKERELVAAISTSGGRTYYADSVKGRFTISRDNAKSTVYLQMNSLKPEDTAVYYCAKDFWYVTGGWSSGLDYWGQGTQVTVSS", "polyreactivity (PSR sort gate)": "low polyreactivity"}
{"sequence": "QVQLVESGGGLVQAGGSLRLSCAASGSTFAGNGMGWYRQAPGKERELVAGIDVTGGSTYYADSVKGRFTSSRDNAKNTVYLQMNSLKPEDTAVYYCNARYVYHSSFAGFDYWGQGTQVTVSS", "polyreactivity (PSR sort gate)": "low polyreactivity"}
{"sequence": "QVQLVESGGGLVQAGGSLRLSCAASGIIFRNYAMGLYRQAPGKEREFVAAISGSGTSTYYADSVKGRFTISRDNAKNTVYLQMNSLKPEDTAVYYCAAEKYSYPYDYEYWGQGTQVTVSS", "polyreactivity (PSR sort gate)": "high polyreactivity"}
{"sequence": "QVQLVESVGGLVQEGGSLRLSCAASGFTFAFYAMGWYRQAPGKERELVAAMTRSGGSTYYADSVKGRFTISRDNAKNTVYLQMNSLKPEDTAVYYCAAVISRWGRSTYDYWGQGTQVTVSS", "polyreactivity (PSR sort gate)": "high polyreactivity"}
{"sequence": "QVQLVESWGGLVQAGGSLRLSCAASGLTFVKNAMGWYRQAPGKERELVAAITRTGGSTYYADSVKVRFTISRDNAKNTFYLQMNSLKPEDPAVYYCASRTPSPRRTKTAVDYWGQGTQVTVSS", "polyreactivity (PSR sort gate)": "high polyreactivity"}
{"sequence": "QVQLVESGGGLVQAGGSLRLSCAASGSIFKKYAMGWYRQAPGKERELVAAISKSGGSTYYADSVKGRFTISRDNAKNTVYLQMNSLKPEDTAVYYCAAAAGGSAYWDYDYWGQGTQVTVSS", "polyreactivity (PSR sort gate)": "low polyreactivity"}
{"sequence": "QVQLVESGGGLDQAAGSLRLSCAASGSNFQWYTMGWYRQAPGKERELVAAITWSGASTYYADSVKGRFTISRDNAKNTVYLQMNSLKPEDTAVYYCAADWRRGTGFYYWGQGTQVTVSS", "polyreactivity (PSR sort gate)": "high polyreactivity"}
{"sequence": "QVQLVESGGGLVQAGGSLRLSCAASGSTFHNYAMGCYRQAPGKERELVAGISVRGGGTYYADSVKGRFTISRDNAKNTVYVQMNSLKPEDTAVYYCNARSWYYVWRKGYRHGDYWGQGTQVTVSS", "polyreactivity (PSR sort gate)": "high polyreactivity"}
{"sequence": "QVQLVESGGGLVQAGGSLRLSCAASGSTFSGYAMGWYRQAPGKERELVAAITSDGSTYYADSVKGRFTISRDNAKNTVYLQMNSLKPEDTAVYYCAVGIPYRGRQGYYGYYTYDYWGQGTQVTVSS", "polyreactivity (PSR sort gate)": "high polyreactivity"}
{"sequence": "QVQLVESGGGLVQAGGSLRLSCAASGRTFGEYAMGWYRQAPGKERELVAAITGGDSTNYADSVKGRFTISRDNAKNTVYFQMNSLKPEDTAVYYCAAYGVKVLWTLTTYDYWGQGTQVTVSS", "polyreactivity (PSR sort gate)": "low polyreactivity"}
{"sequence": "QVQLVESGGGLVQAGGSLRLSCAASGSTFSYYAMGWYRQAPGKERELVASITWNGARTYYADSVKGRFTISRDNAKNTVYLQMNSLKPEDTAVYYCADRHKYAFWTAFGNYWGQGTQVTVSS", "polyreactivity (PSR sort gate)": "high polyreactivity"}
{"sequence": "QVQLVESGGGLVQAGGRLRLSCAASGRIFIKNAMGWYRQAPGKESELVAAISDSGDSTYYAVSVKGRFTISRDNAKNTVYLQMNSLKPEDTAVYYCAADGADHRSEMYYWGQGTQVTVSS", "polyreactivity (PSR sort gate)": "low polyreactivity"}
{"sequence": "QVQLVESGGGLVQAGGSLRLSCAASGRTIITYAMGWYRQAPGKERELVAAINSTDGTSYADSVKGRFTISRDNAKNTVYLQMNSLKPEDTAVYYCARGTEVKSGISYRFYYWGQGTQVTVSS", "polyreactivity (PSR sort gate)": "low polyreactivity"}
{"sequence": "QVQLEESGGGLVQAGGSLRLSCAASGFTFWRYGMGWYRQAPRKERELVASITSGGGTNYADSVKGRFTISRDNAKNTVYIQMNSLKPEDTAVYYCNAVFFYHGTKPAFISHDYWGQGTQVTVSS", "polyreactivity (PSR sort gate)": "low polyreactivity"}
{"sequence": "QVQLVESGGGLVQAGGSLRLSCAASGRTFTSYAMGCYRQEPGKERELVAAITRGGRTNYADSVKGRFTISRDNAKNTVYLQMNSLKPEDTAVYYCNTEIRLSKYDYWGQGTQVTVSS", "polyreactivity (PSR sort gate)": "low polyreactivity"}
{"sequence": "HVQLVESGGGLVQAGGSLRLSCAASGSIFSGNAMGWYRQAPGKERELVAAISYSDGSTYYADSVKGRFTISRDNAKNTVYLQMNSLKPEDTAVYYCAADGYPYTYDYWGQGTQVTVST", "polyreactivity (PSR sort gate)": "low polyreactivity"}
{"sequence": "QVQLVESGGGLVQAGGSLRLSCAASGITFSFYAMGWYRQAPGKERELVADITRGGNTNYADSVKGRFTISRDNAKNTVYLQMNSLKPEDTAVYYCNARRRGAGGYDYWGQGTQVTVSS", "polyreactivity (PSR sort gate)": "high polyreactivity"}
{"sequence": "QVQLVESGGGLVQAGGSLRLSCAASGRISQIYAMGWYRQAPWKERELVARITSTDSTYYADSVKGRFTISRDNAKNTVYLQMNSLKPEDTAVYYCAASWWSPYDYWGQGTQVTVSS", "polyreactivity (PSR sort gate)": "low polyreactivity"}
{"sequence": "QDQLVESGGGLVQAGGSLRLSCAASGFTLSINAMGWYRQAPGKERELVAGISWSGGSTYYADSVKGRFTISRDNAKNTVYLQMNSLKPEDTAVYYCNADIYPDRYGSTNYDFNYWGQGTQVTVSS", "polyreactivity (PSR sort gate)": "low polyreactivity"}
{"sequence": "QVQLVESGGGLVQAGGSLRLSCASSGFTYGTNAMVWYRQAPGKERELVAAISSRGGSTYYADSVKGRFTISRDNAKNTVYLLMNSLKPEDTAVYYCARRVARRQHEYGYWGQGTQVTVSS", "polyreactivity (PSR sort gate)": "high polyreactivity"}
{"sequence": "QVQLVESGGGLVQAGGSLRLSCAASGRIFSYYTMGWYRQAPGTERELVAAITWGGGSTSYADSVKGRFTISRDNAKNTVYLQMNSLKPEDTAVYYCAESPGANRMDYWGQGTQVTVSS", "polyreactivity (PSR sort gate)": "low polyreactivity"}
{"sequence": "QVQLVESGGGLVQAVGSLRLSCAASGRTFGNYAMGWYRQAPGKERELVAAISRSGASTYYADSVKGRFTISRDNAKNSVYLQMNSLKPEDTAVYYCAARVLKPFKYGYWGQGTQVTVSS", "polyreactivity (PSR sort gate)": "high polyreactivity"}
{"sequence": "QVQLVESVGGLVQAGGSLRLSCAASGIIFSCYAMGWYRQAPGKERELVAAISSSGGTTFYADSVKGRFTISRDNAKNTVYLQMNSLKPVDTAVYYCAVVGPPYYTWRVWRPAYDYWGQGTQVTVSS", "polyreactivity (PSR sort gate)": "high polyreactivity"}
{"sequence": "QVQLVESGGGLVQAGGSLRLSCAASGRIFIIYAMGWYRQAPGKERELVAAITSGGGSTRYADSVKGRFPISRDNAKNTVYLQMNSLKPEDTAVYYCAAARITRGRRYDYWGQGTQVTVSS", "polyreactivity (PSR sort gate)": "high polyreactivity"}
{"sequence": "QVQLVESGGGLVQAGGSLRLSCAASGNIFVINAMGWYRQAPGKERELVAAISWSTANTYYADSVKGRFTISRDNAKNTVYLQLNSLKPEDTAVYYCAAVFRYYTYSGAVRYYYWGQGTQVTVSS", "polyreactivity (PSR sort gate)": "high polyreactivity"}
{"sequence": "QVQLVESGGGLVQAGGSLRLSCAASGFIFFQYAMGWYRQAPGKERELVAAISSGGNTYYADSVKGRFTISRDNAKNTVYLQMNSLKPEDTAVYYCAAYYPLRKGYGYWGQGTQVTVSS", "polyreactivity (PSR sort gate)": "high polyreactivity"}
{"sequence": "QVQLVESGGGLVQAGGSLRLSCAASGGIFFYYVMGWYRQAPGKERELVAAITSGGSTYYADSVKGRFTISRDNAKNTVYLQMNSLKPEDTAVYSCNGRDVVDYSVWSRYAYDYWGQGTQVTVSS", "polyreactivity (PSR sort gate)": "low polyreactivity"}
{"sequence": "QVQLVESGGGLVQAGGSLRLSCAASGLIFPGYAMGWYRPAPGKERELVAAISGSGGSTYYADSVKGRFTISRDNAKNTVYLQMNSLKPEDTAVYYCSTSGPQYYSRNFDYWGQGTQVTVSS", "polyreactivity (PSR sort gate)": "low polyreactivity"}
{"sequence": "QVQLVESGGGLVQAGGSLRLSCAASGSTFAGNAMGWYRQAPGKERELVAAIDSSTGSTYYADSVKGRFTISRDNAKNTVYLQMNSLKPEDTPVYYCSREYYEGYEYWGLGTQVTVSS", "polyreactivity (PSR sort gate)": "low polyreactivity"}
{"sequence": "QVQLVESGGGLVQAGGSLRLSCAASGRTFTVYPMGWYRQAPVKEREFVAAITERGGSTYYADSVKGRFTISRDNAKNTVYLQMNSLKPEDTAVYYCAAVYYWRPGWYVRFDYWGQGTQVTVSS", "polyreactivity (PSR sort gate)": "low polyreactivity"}
{"sequence": "QVQLVESGGGLVQAGGSLRLSCAASGSIFSFYAMGWYRQAPGKERELVAAISRSGGSTYYADSVKGRFTISRDNAKNTVYLQMNSLKPEDTAVYYCAADYYYGTYDYWGQGTQVTVSS", "polyreactivity (PSR sort gate)": "low polyreactivity"}
